Reference: PMC5897525

Biological target: rFel d 1.mFc
Assay: SPR; 25°C; dimeric

## REGN1908
  Kd: 0.0316 nM
  koff: 7.25e-05 s⁻¹
